{"source": "patent US20250025499A1", "about": "(published 2025)", "key": {"[1]": {"target": "T1, SF3B1 K700E peptide on HLA-B*40:01 (human)", "T1 peptide": "QEVRTISAL", "experiment": "peptide titration 51Cr-release assay; clone 24 against autologous LCL pulsed with varying peptide concentrations; T cell clone or line", "description": "(§1) LCL were pulsed with QEVRTISAL (SEQ ID NO: 1) peptide at 1000 ng/ml prior to co-culture (>5 biological replicates per HLA). […] The tested peptides include […] (SEQ ID NO: 50), […] (SEQ ID NO: 64), and […] (SEQ ID NO: 65). QEVRTISAL (SEQ ID NO: 1) peptide and the wild-type equivalent QKVRTISAL (SEQ ID NO: 2) were included as controls (3 technical replicate experiments). […] For all experiments, mean and standard error of the mean (SEM) are shown.\n(§2) Cytotoxicity was measured in short-term (4-hour) assays using 51Cr-labeled target cells. Briefly, target cells were labeled with ⁵¹Cr overnight (cell lines) or for 6 hours (primary leukemia) at 37° C. and 5% CO₂. Effector cells were added to labeled target cells and incubated for 4 hours. After co-incubation, supernatant was harvested for γ-counting. Specific lysis was calculated using a standard formula. Targets used included autologous LCL with and without peptides in varying concentrations. All targets were washed to remove excess 51Cr and residual interferon-γ or peptide before co-culture initiation."}, "[2]": {"target": "T2, SF3B1 K700E epitope with alanine at position 3 peptide on HLA-B*40:01 (human)", "T2 peptide": "QEARTISAL", "experiment": "killing", "description": "as §1, §2"}, "[3]": {"target": "T3, SF3B1 K700E epitope with alanine at position 2 peptide on HLA-B*40:01 (human)", "T3 peptide": "QAVRTISAL", "experiment": "killing", "description": "as §1, §2"}, "[4]": {"target": "T4, SF3B1 K700E epitope with alanine at position 1 peptide on HLA-B*40:01 (human)", "T4 peptide": "AEVRTISAL", "experiment": "killing", "description": "as §1, §2"}, "[5]": {"target": "T5, SF3B1 K700E epitope with alanine at position 9 peptide on HLA-B*40:01 (human)", "T5 peptide": "QEVRTISAA", "experiment": "killing", "description": "as §1, §2"}, "[6]": {"target": "T6, alkylglycerone-phosphate synthase (AGPS) peptide on HLA-B*40:01 (human)", "T6 peptide": "DETRTIISL", "experiment": "killing", "description": "as §1, §2"}, "[7]": {"target": "T7, SF3B1 K700E peptide on HLA-B*40:02 (human)", "T7 peptide": "QEVRTISAL", "experiment": "killing", "description": "as §1, §2"}, "[8]": {"target": "T8, SF3B1 K700E epitope with valine at position 8 peptide on HLA-B*40:01 (human)", "T8 peptide": "QEVRTISVL", "experiment": "killing", "description": "as §1, §2"}, "[9]": {"target": "T9, Gem-associated protein 5 (GEMIN5) peptide on HLA-B*40:01 (human)", "T9 peptide": "IEPRTIFCL", "experiment": "killing", "description": "as §1, §2"}, "[10]": {"target": "T10, mitochondrial trifunctional enzyme subunit alpha (HADHA) peptide on HLA-B*40:01 (human)", "T10 peptide": "PEERTIEYL", "experiment": "killing", "description": "as §1, §2"}, "[11]": {"target": "T11, SF3B1 K700E epitope with alanine at position 4 peptide on HLA-B*40:01 (human)", "T11 peptide": "QEVATISAL", "experiment": "killing", "description": "as §1, §2"}, "[12]": {"target": "T12, spermatogenesis-associated protein 1 (SPATA1) peptide on HLA-B*40:01 (human)", "T12 peptide": "VEDRTIRQL", "experiment": "killing", "description": "as §1, §2"}, "[13]": {"target": "T13, CBFB-MYH11 type A peptide on HLA-B*40:01 (human)", "T13 peptide": "REEMEVHEL", "experiment": "killing", "description": "as §1, §2"}, "[14]": {"target": "T14, SF3B1 wild-type peptide on HLA-B*40:01 (human)", "T14 peptide": "QKVRTISAL", "experiment": "killing", "description": "as §1, §2"}, "[15]": {"target": "T15, SF3B1 K700E epitope with alanine at position 7 peptide on HLA-B*40:01 (human)", "T15 peptide": "QEVRTIAAL", "experiment": "killing", "description": "as §1, §2"}, "[16]": {"target": "T16, SF3B1 K700E epitope with glycine at position 8 peptide on HLA-B*40:01 (human)", "T16 peptide": "QEVRTISGL", "experiment": "killing", "description": "as §1, §2"}, "[17]": {"target": "T17, SF3B1 K700E epitope with alanine at position 6 peptide on HLA-B*40:01 (human)", "T17 peptide": "QEVRTASAL", "experiment": "killing", "description": "as §1, §2"}, "[18]": {"target": "T18, SF3B1 K700E epitope with alanine at position 5 peptide on HLA-B*40:01 (human)", "T18 peptide": "QEVRAISAL", "experiment": "killing", "description": "as §1, §2"}}, "data": [{"binder": "TCR24 (SF3B1^K700E/B*40:01-specific TCR from clone 24) (TCR, V domains shown) Valpha: AQSVTQPDIHITVSEGASLELRCNYSYGATPYLFWYVQSPGQGLQLLLKYFSGDTLVQGIKGFEAEFKRSQSSFNLRKPSVHWSDAAEYFCAVAAKDSSYKLIFGSGTRLLVRP Vbeta: SAVISQKPSRDICQRGTSLTIQCQVDSQVTMMFWYRQQPGQSLTLIATANQGSEATYESGFVIDKFPISRPNLTFSTLTVSNMSPEDSSIYLCSDRGQVVGETQYFGPGTRLLVL", "values": [{"measurement": "EC50 of peptide", "setting": "[1]", "value": "~0.1", "unit": "ng/mL"}, {"measurement": "binding result", "setting": "[2]", "value": "recognises"}, {"measurement": "binding result", "setting": "[3]", "value": "no recognition"}, {"measurement": "binding result", "setting": "[4]", "value": "recognises"}, {"measurement": "binding result", "setting": "[5]", "value": "no recognition"}, {"measurement": "binding result", "setting": "[6]", "value": "no recognition"}, {"measurement": "binding result", "setting": "[7]", "value": "no recognition"}, {"measurement": "binding result", "setting": "[8]", "value": "recognises"}, {"measurement": "binding result", "setting": "[9]", "value": "no recognition"}, {"measurement": "binding result", "setting": "[10]", "value": "no recognition"}, {"measurement": "binding result", "setting": "[11]", "value": "no recognition"}, {"measurement": "binding result", "setting": "[12]", "value": "no recognition"}, {"measurement": "binding result", "setting": "[13]", "value": "no recognition"}, {"measurement": "binding result", "setting": "[14]", "value": "no recognition"}, {"measurement": "binding result", "setting": "[15]", "value": "recognises"}, {"measurement": "binding result", "setting": "[16]", "value": "recognises"}, {"measurement": "binding result", "setting": "[17]", "value": "no recognition"}, {"measurement": "binding result", "setting": "[18]", "value": "no recognition"}]}]}
